Source: paper PMC2835651

Test system: Cc1cn([C@H]2C[C@H](O)[C@@H](COP(=O)(O)OP(=O)(O)OP(=O)(O)O)O2)c(=O)[nH]c1=O
Assay: purified protein
Conditions: poly(rA)/oligo(dT)15 template/primer; 25-250 μM TTP; labelled compound

## PFV PR-RT (Human spumaretrovirus)
  Km: 45 (± 12) μM
  kcat: 7.1 s⁻¹
